The values below come from patent US20170082635A1 (University of California, published 2017).

B5: yeast 20 S proteasome subunit β3 (PUP3) (other, UniProt P25451 1-205, looked up)
chain: MSDPSSINGGIVVAMTGKDCVAIACDLRLGSQSLGVSNKFEKIFHYGHVFLGITGLATDVTTLNEMFRYKTNLYKLKEERAIEPETFTQLVSSSLYERRFGPYFVGPVVAGINSKSGKPFIAGFDLIGCIDEAKDFIVSGTASDQLFGMCESLYEPNLEPEDLFETISQALLNAADRDALSGWGAVVYIIKKDEVVKRYLKMRQD

For experiment [1], the target named is T1, yeast 20 S proteasome subunit α6 (PRE5) (yeast, UniProt P40302 1-234).
T1 sequence (looked up): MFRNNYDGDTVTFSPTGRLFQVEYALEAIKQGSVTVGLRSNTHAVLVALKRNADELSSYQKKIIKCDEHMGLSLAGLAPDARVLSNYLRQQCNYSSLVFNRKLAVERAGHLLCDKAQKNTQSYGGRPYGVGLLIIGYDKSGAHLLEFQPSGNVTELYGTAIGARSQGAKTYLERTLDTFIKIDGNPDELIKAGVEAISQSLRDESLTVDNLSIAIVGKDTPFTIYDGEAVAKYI
Description: DSSO XL-MS of purified yeast 20S proteasome.

The target of a further experiment is T2, HB-Rpt6 (human, UniProt P62195 2-406).
T2 construct: whole, on cells; stably expressed in 293 cells; used for all links whose Bait column says Rpt6; residue numbers count on P62195, not on the tagged construct; also called Rpt6 (bait); HB tagged proteasome subunit Rpt6; not shown: HB (His-bio) tag, written before Rpt6
The experiment in a line: in vivo azide-A-DSBSO XL-MS of HB-tag purified human proteasome.

For experiment [2], the target named is T3, human proteasome subunit Rpn5 (human, UniProt O00232 2-456).
T3 construct: whole, on cells; endogenous, cross-linked inside intact 293 cells, purified with the HB-tagged bait; also called O00232
The description is as above.

For experiment [3], the target named is B5. The experiment in a line: DSSO XL-MS of purified yeast 20S proteasome.
In experiment [4] the target is T4, yeast 20 S proteasome subunit α3 (PRE9) (yeast, UniProt P23638 1-258).
T4 sequence (looked up): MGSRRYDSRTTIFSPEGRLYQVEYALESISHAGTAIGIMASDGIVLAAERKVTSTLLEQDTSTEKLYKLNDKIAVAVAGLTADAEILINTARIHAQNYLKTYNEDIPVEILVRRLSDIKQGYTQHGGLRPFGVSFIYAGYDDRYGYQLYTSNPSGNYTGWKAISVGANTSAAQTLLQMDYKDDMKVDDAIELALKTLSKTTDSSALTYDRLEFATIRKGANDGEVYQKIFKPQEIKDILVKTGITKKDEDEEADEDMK
Description: DSSO XL-MS of purified yeast 20S proteasome.

B1: yeast 20 S proteasome subunit β6 (PRE7) (other, UniProt P23724 20-241, looked up)
chain: QFNPYGDNGGTILGIAGEDFAVLAGDTRNITDYSINSRYEPKVFDCGDNIVMSANGFAADGDALVKRFKNSVKWYHFDHNDKKLSINSAARNIQHLLYGKRFFPYYVHTIIAGLDEDGKGAVYSFDPVGSYEREQCRAGGAAASLIMPFLDNQVNFKNQYEPGTNGKVKKPLKYLSVEEVIKLVRDSFTSATERHIQVGDGLEILIVTKDGVRKEFYELKRD
notes: mature
B1: the binding result in experiment [1] was “binds”.

B2: human proteasome subunit α3 (other, UniProt P25789 1-261, looked up)
chain: MSRRYDSRTTIFSPEGRLYQVEYAMEAIGHAGTCLGILANDGVLLAAERRNIHKLLDEVFFSEKIYKLNEDMACSVAGITSDANVLTNELRLIAQRYLLQYQEPIPCEQLVTALCDIKQAYTQFGGKRPFGVSLLYIGWDKHYGFQLYQSDPSGNYGGWKATCIGNNSAAAVSMLKQDYKEGEMTLKSALALAIKVLNKTMDVSKLSAEKVEIATLTRENGKTVIRVLKQKEVEQLIKKHEEEEAKAEREKKEKEQKEKDK
notes: whole, on cells; endogenous, cross-linked inside intact 293 cells, then purified with the HB-tagged bait under denaturing conditions; also called alpha3; alpha-3
For B2, the binding result in the experiment with HB-Rpt6 is listed as “binds”.

B3: human proteasome subunit Rpn9 (other, UniProt Q9UNM6 1-376, looked up)
chain: MKDVPGFLQQSQNSGPGQPAVWHRLEELYTKKLWHQLTLQVLDFVQDPCFAQGDGLIKLYENFISEFEHRVNPLSLVEIILHVVRQMTDPNVALTFLEKTREKVKSSDEAVILCKTAIGALKLNIGDLQVTKETIEDVEEMLNNLPGVTSVHSRFYDLSSKYYQTIGNHASYYKDALRFLGCVDIKDLPVSEQQERAFTLGLAGLLGEGVFNFGELLMHPVLESLRNTDRQWLIDTLYAFNSGNVERFQTLKTAWGQQPDLAANEAQLLRKIQLLCLMEMTFTRPANHRQLTFEEIAKSAKITVNEVELLVMKALSVGLVKGSIDEVDKRVHMTWVQPRVLDLQQIKGMKDRLEFWCTDVKSMEMLVEHQAHDILT
notes: whole, on cells; endogenous, cross-linked inside intact 293 cells, purified with the HB-tagged bait; also called Q9UNM6
B3: the binding result in experiment [2] is reported as “binds”.

B4: yeast 20 S proteasome subunit β4 (PRE1) (other, UniProt P22141 1-198, looked up)
chain: MDIILGIRVQDSVILASSKAVTRGISVLKDSDDKTRQLSPHTLMSFAGEAGDTVQFAEYIQANIQLYSIREDYELSPQAVSSFVRQELAKSIRSRRPYQVNVLIGGYDKKKNKPELYQIDYLGTKVELPYGAHGYSGFYTFSLLDHHYRPDMTTEEGLDLLKLCVQELEKRMPMDFKGVIVKIVDKDGIRQVDDFQAQ
Take B4: the binding result in experiment [3] is given as “binds”. As for B5, the binding result in experiment [4] is given as “binds”.
